Experimental data published in article PMC7373347 (Current protocols in cell biology, 2020).
Where two headings read alike, the source gives them in different places.

Experiments:
SEC [1] = target: the molecule itself; test: SEC
SEC [2] = target: the molecule itself; test: SEC; remark: listed apart in the source

Protein	stoichiometry N (SEC [1])	stoichiometry N (SEC [2])
human DHHC15 (Palmitoyl Acyl Transferase, hDHHC15) fused to mVenus (enzyme, UniProt Q96MV8 1-337, looked up) MRRGWKMALSGGLRCCRRVLSWVPVLVIVLVVLWSYYAYVFELCLVTVLSPAEKVIYLILYHAIFVFFTWTYWKSIFTLPQQPNQKFHLSYTDKERYENEERPEVQKQMLVDMAKKLPVYTRTGSGAVRFCDRCHLIKPDRCHHCSVCAMCVLKMDHHCPWVNNCIGFSNYKFFLQFLAYSVLYCLYIATTVFSYFIKYWRGELPSVRSKFHVLFLLFVACMFFVSLVILFGYHCWLVSRNKTTLEAFCTPVFTSGPEKNGFNLGFIKNIQQVFGDKKKFWLIPIGSSPGDGHSFPMRSMNESQNPLLANEETWEDNEDDNQDYPEGSSSLAVETET	2	
human DHHC15 (Palmitoyl Acyl Transferase, hDHHC15), purified, tag cleaved (enzyme, UniProt Q96MV8 1-337, looked up) MRRGWKMALSGGLRCCRRVLSWVPVLVIVLVVLWSYYAYVFELCLVTVLSPAEKVIYLILYHAIFVFFTWTYWKSIFTLPQQPNQKFHLSYTDKERYENEERPEVQKQMLVDMAKKLPVYTRTGSGAVRFCDRCHLIKPDRCHHCSVCAMCVLKMDHHCPWVNNCIGFSNYKFFLQFLAYSVLYCLYIATTVFSYFIKYWRGELPSVRSKFHVLFLLFVACMFFVSLVILFGYHCWLVSRNKTTLEAFCTPVFTSGPEKNGFNLGFIKNIQQVFGDKKKFWLIPIGSSPGDGHSFPMRSMNESQNPLLANEETWEDNEDDNQDYPEGSSSLAVETET		2
